Measured values published in paper doi:10.1101/2025.10.11.676729.

Biological target: Pyrococcus abyssi 70S ribosome (Pyrococcus abyssi (endogenous in P. abyssi)) (UniProt Q9V109)
Assay: cryo-EM structure

Sequence of UniProt Q9V109 (Q9V109 whole entry, looked up): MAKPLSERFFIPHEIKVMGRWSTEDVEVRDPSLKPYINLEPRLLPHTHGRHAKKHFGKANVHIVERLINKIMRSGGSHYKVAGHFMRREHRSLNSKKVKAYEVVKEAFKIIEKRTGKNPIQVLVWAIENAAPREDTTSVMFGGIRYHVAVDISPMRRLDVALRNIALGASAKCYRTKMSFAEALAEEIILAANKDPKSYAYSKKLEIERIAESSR

percent of 70S particles that contained Hib: 51.6%
B1: Hib, endogenous, bound to ribosomes isolated from Pyrococcus abyssi cell extracts (natural protein)
chain: MVGIQVQEVMTDRYAKIDINAPLSEAIGIIEKEDPDLILVFDDNVYKGVLTQDLIIRSHLKWDPTKAKVRDVYKPAPVVKPTDDLSHAAKLLLETDLRSLPVGENKAEILGVISDMALLERVVAEEFGKRKVEEFMTKDVITLGPDDTVAKALATMRDHGISRIPVVDEEGKLEGLVTLHDLIIRFIKPRFKAQYGELAGEKIPPFSMKLREAMIKGVITIMPEATIREAVSTMKDNNIDGLVVVDENNKVVGILTVKDLLLPISRMVEKEARFYLQLGGDASALSEFTRERIINDIKRFVDGYADLLGNEGIIYLYIRRFNEKFRGVHLYQARMRVVTDRGVFIARGETWGAIQAVHDAIRAIERQLLQKAELERDIRYAKRFIEKLELWR
